In test [1] the target is Neisseria meningitidis 3-deoxy-D-arabino-heptulosonate 7-phosphate synthase, R126S variant (N. meningitidis) (UniProt Q9K169). As to the kind of experiment: crystal structure.
Test [2] shares this target. The test can be described thus: SEC. (In general: Size exclusion chromatography separates by hydrodynamic size, large species first.)
Test [3] shares this target. As to the kind of experiment: AUC; sedimentation velocity, 20°C, 10 mM BTP pH 7.3, 100 mM KCl, 200 μM PEP; 0.2, 0.4 and 1.2 mg/mL; continuous size distribution model (SEDFIT).
The target is the same in test [4]. As to the kind of experiment: SAXS; SEC-coupled small angle X-ray scattering, 25°C, 10 mM BTP pH 7.5, 100 mM KCl, 200 μM PEP; initial 7 mg/mL (wild type) and 12 mg/mL (R126S) prior to SEC; CRYSOL fits to tetramer and tight dimer of the crystal structure.

Take “Neisseria meningitidis 3-deoxy-D-arabino-heptulosonate 7-phosphate synthase, R126S variant (from UniProt Q9K169 1-351) (enzyme)”: the stoichiometry N in test [1] worked out at 4; in test [2], 2; in test [3], 2; in test [4], 2.

What is called stoichiometry N is the number of molecules, sites or subunits per partner or assembly.

(Values after article PMC4735112, “The Functional Unit of Neisseria meningitidis 3-Deoxy-ᴅ-Arabino-Heptulosonate 7-Phosphate Synthase Is Dimeric” (PLoS ONE, 2016).)
